Target: 2CARD^RIG-I(E52A)-CARD^MAVS(KKK) fusion protein, 16 aa linker (human) (UniProt O95786)
Test: SEC-MALS

- stoichiometry N: 4
Substance: 2CARD^RIG-I(E52A)-CARD^MAVS(KKK) fusion protein, 16 aa linker (from UniProt O95786 1-188; Q7Z434 1-97)
